Test results published in US20160024207A1 (University of Texas, published 2016).

What was measured:
[1] = target: recombinant human (rhu) EpCAM/Fc (960-EP, R&D Systems) (human) (UniProt P16422); assay: flow cytometry of E. coli displaying scFv (APEx), EpCAM-Fc then fluorescent secondary antibody
[2] = target: human EpCAM expressed on human carcinoma cells (PC3, MCF7) (human) (UniProt P16422); assay: NIR flow cytometry, IRDye 800CW-labeled isotype control mAb on PC3 cells
[3] = target: human EpCAM expressed on human carcinoma cells (PC3, MCF7) (human) (UniProt P16422); assay: flow cytometry on MCF7 cells, mAb concentration 6.4 ng/ml, fluorescently labeled secondary antibody, 10,000 cells
[4] = target: human EpCAM expressed on human carcinoma cells (PC3, MCF7) (human) (UniProt P16422); assay: flow cytometry on MCF7 cells, mAb concentration 32 ng/ml, fluorescently labeled secondary antibody, 10,000 cells
[5] = target: human EpCAM expressed on human carcinoma cells (PC3, MCF7) (human) (UniProt P16422); assay: flow cytometry on MCF7 cells, mAb concentration 160 ng/ml, fluorescently labeled secondary antibody, 10,000 cells
[6] = target: T1, recombinant human (rhu) EpCAM/Fc (960-EP, R&D Systems) (human, UniProt P16422 24-265); assay: SPR, ratio of Fab KD values, reference mAb 9601 Fab
T1 construct: Bought fusion protein; not shown: Fc part
T1 sequence (looked up): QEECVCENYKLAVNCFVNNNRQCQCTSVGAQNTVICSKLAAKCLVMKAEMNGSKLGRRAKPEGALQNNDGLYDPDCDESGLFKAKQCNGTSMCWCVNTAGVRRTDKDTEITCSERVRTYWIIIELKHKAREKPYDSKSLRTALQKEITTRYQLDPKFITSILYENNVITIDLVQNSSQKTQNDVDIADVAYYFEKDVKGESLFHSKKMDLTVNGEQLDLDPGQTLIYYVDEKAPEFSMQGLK
Experimental: (§1) In order to discriminate between monovalent and multivalent interactions on quantitative SPR measurements of KD, the binding affinities of the Fab fragments of mAbs were measured using SPR and a Biacore T100 instrument (GE Healthcare). Two flow cells of a CM5 chip were coated with goat anti-human IgG (Fc-specific) (Jackson ImmunoResearch) to approximately 8000 resonance units (RU) with an NHS/EDC Amine Coupling Kit BR-1000-50 (GE Healthcare). All measurements were made at 25° C. using HBS-EP+(10 mM HEPES, 150 mM NaCl, 3 mM EDTA, 0.05% v/v Tween 20, pH 7.4) as running buffer. EpCAM/Fc ligand (R&D Systems) was diluted in HBS-EP+ to 0.5 μg/ml and applied to the coated chip surface. Fab fragments were then tested at five different molar concentrations starting at 50 nM after performing a two-fold dilution series. Flow cells were regenerated with 100 mM phosphoric acid. All samples were applied in duplicate.

[7] = target: T1, recombinant human (rhu) EpCAM/Fc …; assay: SPR (Biacore T100), EpCAM/Fc captured, Fab as analyte; Fab fragment, not IgG
Experimental: as §1

[8] = target: T1, recombinant human (rhu) EpCAM/Fc …; assay: SPR (Biacore T100), EpCAM/Fc captured on anti-human IgG Fc chip, Fab as analyte, 25 C
Experimental: as §1

[9] = target: T2, murine EpCAM on mouse 4T1 mammary carcinoma cells (mouse, UniProt Q99JW5 24-315); assay: flow cytometry on mouse 4T1 cells, PE-labeled anti-mouse IgG
T2 construct: whole, on cells; also called mouse EpCAM
T2 sequence (looked up): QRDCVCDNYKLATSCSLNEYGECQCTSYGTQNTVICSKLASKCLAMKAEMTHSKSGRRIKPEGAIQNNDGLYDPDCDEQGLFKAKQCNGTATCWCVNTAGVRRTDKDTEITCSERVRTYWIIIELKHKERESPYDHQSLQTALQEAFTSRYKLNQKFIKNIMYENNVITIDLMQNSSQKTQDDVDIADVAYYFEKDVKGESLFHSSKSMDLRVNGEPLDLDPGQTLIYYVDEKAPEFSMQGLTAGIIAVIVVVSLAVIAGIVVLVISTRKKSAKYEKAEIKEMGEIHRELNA
Experimental: To determine whether mAbs specific for human EpCAM cross-react with murine EpCAM, the human cell line MCF7 (as described above) and 4T1 cells (mouse mammary carcinoma, CRL2539™, ATCC) were used. Hybridoma cells were grown and mAbs purified as above-described. Rat anti-mouse EpCAM, mAb G8.8 (Developmental Studies Hybridoma Bank, University of Iowa, Iowa City, Iowa) was utilized as a positive control for detection of EpCAM on the surface of 4T1 cells. Following incubation (20 min, on ice) with mAb, cells were washed with PBS-BSA and either DyLIGHT-488 conjugated donkey anti-rat IgG (Jackson ImmunoResearch) or PE-conjugated donkey F(ab′) 2 anti-mouse IgG (Jackson ImmunoResearch) was added at 5 μg per sample and incubated for an additional 20 min for detecting cells bound by rat anti-mouse or mouse anti-human EpCAM mAb, respectively. Cells were washed again with PBS-BSA and fixed in 2% paraformaldehyde prior to analyzing (10,000 events) on a BD FACSCalibur Flow Cytometer (BD Biosciences) using WinMDI2.9 software.

[10] = target: T3, human EpCAM expressed on human carcinoma cells (PC3, MCF7) (human, UniProt P16422 24-314); assay: flow cytometry on PC3 cells, 5 µg/ml mAb, PE-labeled anti-mouse IgG
T3 construct: whole, on cells; also called native EpCAM; surface expressed EpCAM
T3 sequence (looked up): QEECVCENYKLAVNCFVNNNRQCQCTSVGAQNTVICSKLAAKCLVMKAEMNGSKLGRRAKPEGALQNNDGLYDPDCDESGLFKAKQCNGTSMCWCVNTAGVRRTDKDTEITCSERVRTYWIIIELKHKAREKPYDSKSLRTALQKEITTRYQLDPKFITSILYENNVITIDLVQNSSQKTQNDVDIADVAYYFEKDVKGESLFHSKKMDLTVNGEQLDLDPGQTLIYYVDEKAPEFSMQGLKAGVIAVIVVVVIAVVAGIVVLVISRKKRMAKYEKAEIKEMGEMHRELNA
Experimental: PC3 cells (human prostate adenocarcinoma line, CRL1435™, ATCC, Manassas, Va.), grown to 80%-100% confluency in DMEM with 10% FBS, were treated with Trypsin-EDTA and resuspended in PBS containing 2% bovine serum albumin (BSA). One million cells per well were labeled with 5 μg/ml of mAb in a 200-μl volume and incubated on ice for 20 min. After washing with PBS-BSA, phycoerythrin (PE)-conjugated donkey F(ab′)2 anti-mouse IgG (Jackson ImmunoResearch, West Grove, Pa.) at 5 μg per sample was added for an additional 20-min incubation. Cells were washed again with PBS-BSA and fixed in 2% paraformaldehyde prior to analyzing (10,000 events) on a BD FACSCalibur Flow Cytometer (BD Biosciences, San Jose, Calif.). Analyses of mean fluorescence intensities (MFI) were performed using WinMDI2.9 software.

[11] = target: T1, recombinant human (rhu) EpCAM/Fc …; assay: Biacore kinetic analysis of scFv
[12] = target: recombinant human (rhu) EpCAM/Fc (960-EP, R&D Systems) (human) (UniProt P16422); assay: Biacore kinetic analysis of scFv
[13] = target: human EpCAM expressed on human carcinoma cells (PC3, MCF7) (human) (UniProt P16422); assay: flow cytometry on PC3 cells, scFv then fluorophore-conjugated secondary antibody

Q: “control scFv with no affinity to EpCAM (displayed on E. coli)” was tested. Which MFI [1] did it give?
A: The MFI was 13 MFI.

Q: Which results are given for “in-house IgG1 isotype control mAb 69 (antibody)”?
A: Biological Activity, % (percentage of PC3 cells stained) [2]: 3.2%; MFI [2]: 125 MFI units

Q: “Veridex anti-EpCAM mAb VU-1D9 (antibody)” was tested. Which MFI [3] did it give?
A: The MFI was 38.

Q: What about the MFI [4] of the same molecule?
A: Its MFI is 106.

Q: What about the MFI [5] of the same molecule?
A: The MFI was 321.

Q: How did the Biological Activity, % (percentage of PC3 cells stained) [2] turn out when “commercial IgG2b isotype control mAb (BD Pharmingen) (antibody)” was run?
A: Its Biological Activity, % (percentage of PC3 cells stained) is 0.7%.

Q: What about the MFI [2] of the same molecule?
A: Its MFI is 149 MFI units.

B1: Fab fragment of mAb 153 (Fab, V domains shown)
VH: QVQLQQSGAELVKPGTSVKLSCKASGYNFTSYWINWVKLRPGQGLEWIGDIYPGSGNSHYNEKFKSKATLTVDTSSSTAYMQLSSLASGDSALYYCARNYYGSSPFPMDYWGQGTSVTVSS
VL: DIVMTQSPSSLIVTAGEKVTMSCKSSQSLLNSGNQKNYLTWYQQKPGQPPKLLIYWASTRESGVPDRFTGSGSGTDFTLTLNSAQAEDLAVYYCQNDYTYPLTFGAGTKLEIK
Q: Which results are given for B1?
A: fold increase in affinity above mAb 9601 [6]: 28 fold; Kd [7]: 540 pM; Kd [8]: 530 pM; koff [8]: 0.00012 s⁻¹; kon [8]: 220000 M⁻¹ s⁻¹

B2: anti-EpCAM monoclonal antibody 153 (antibody, V domains shown)
VH: QVQLQQSGAELVKPGTSVKLSCKASGYNFTSYWINWVKLRPGQGLEWIGDIYPGSGNSHYNEKFKSKATLTVDTSSSTAYMQLSSLASGDSALYYCARNYYGSSPFPMDYWGQGTSVTVSS
VL: DIVMTQSPSSLIVTAGEKVTMSCKSSQSLLNSGNQKNYLTWYQQKPGQPPKLLIYWASTRESGVPDRFTGSGSGTDFTLTLNSAQAEDLAVYYCQNDYTYPLTFGAGTKLEIK
notes: In-house mouse IgG1 from hybridoma; In the NIR flow cytometry it carried IRDye 800CW (and DOTA)
Q: Does B2 bind [9]?
A: Result: no binding

Q: And the “MFI fold increase relative to PE-conjugated secondary antibody alone” value [10]?
A: Its value is 4.8 fold.

B3: anti-EpCAM scFv 153 (scFv, V domains shown)
VH: QVQLQQSGAELVKPGTSVKLSCKASGYNFTSYWINWVKLRPGQGLEWIGDIYPGSGNSHYNEKFKSKATLTVDTSSSTAYMQLSSLASGDSALYYCARNYYGSSPFPMDYWGQGTSVTVSS
VL: DIVMTQSPSSLIVTAGEKVTMSCKSSQSLLNSGNQKNYLTWYQQKPGQPPKLLIYWASTRESGVPDRFTGSGSGTDFTLTLNSAQAEDLAVYYCQNDYTYPLTFGAGTKLEIK
Q: How did the Kd [11] turn out when B3 was run?
A: Its Kd is 210 pM.

B4: anti-EpCAM scFv 7 (scFv, V domains shown, not shown: small tags and cut ends)
VH: QVQLQQSGPELEKPGGSVKISCKASGYSFTGYNMNWVKQSNGKSLEWIGNIDPYNGGSGFDQKFKGKATLTVDTSSSTAYMHLKSLTSEDSAVYYCAREYGSNFDYWGQGTTLTVSS
VL: DIQMTQSTSSLSASLGDRVTISCRASQDIGTYLNWYQQQADGTFKLLIYYTSRLHSGIPSRFSGSGSGTDFSLTISNLGQEDIATYFCQQGNTLPWTFGGGTKLEIK
modifications: linker not given
Q: How did the Kd [12] turn out when B4 was run?
A: The Kd was 4140 pM.

Q: And the MFI [13]?
A: The MFI was 380 MFI.

Q: What about the MFI [1] of the same molecule?
A: Its MFI is 170 MFI.

B5: anti-EpCAM monoclonal antibody 7 (antibody, V domains shown)
VH: QVQLQQSGPELEKPGGSVKISCKASGYSFTGYNMNWVKQSNGKSLEWIGNIDPYNGGSGFDQKFKGKATLTVDTSSSTAYMHLKSLTSEDSAVYYCAREYGSNFDYWGQGTTLTVSS
VL: DIQMTQSTSSLSASLGDRVTISCRASQDIGTYLNWYQQQADGTFKLLIYYTSRLHSGIPSRFSGSGSGTDFSLTISNLGQEDIATYFCQQGNTLPWTFGGGTKLEIK
notes: In-house mouse IgG1 from hybridoma; IRDye 800CW (and DOTA) labeled in the NIR flow cytometry; also called mAb 7
Q: Does B5 bind [9]?
A: Result: no binding

Q: And the “MFI fold increase relative to PE-conjugated secondary antibody alone” value [10]?
A: The value was 3.9 fold.

B6: Fab fragment of mAb 7 (Fab, V domains shown)
VH: QVQLQQSGPELEKPGGSVKISCKASGYSFTGYNMNWVKQSNGKSLEWIGNIDPYNGGSGFDQKFKGKATLTVDTSSSTAYMHLKSLTSEDSAVYYCAREYGSNFDYWGQGTTLTVSS
VL: DIQMTQSTSSLSASLGDRVTISCRASQDIGTYLNWYQQQADGTFKLLIYYTSRLHSGIPSRFSGSGSGTDFSLTISNLGQEDIATYFCQQGNTLPWTFGGGTKLEIK
notes: Fab made by ficin digestion of the mouse IgG1 mAb 7; also called 7 Fab; mAb 7 Fab fragment
Q: For B6, which “fold increase in affinity above mAb 9601” value [6] is on record?
A: Its value is 7 fold.

Q: What about the Kd [8] of the same molecule?
A: The Kd was 2300 pM.

Q: And the koff [8]?
A: The koff was 0.00099 s⁻¹.

Q: What about the kon [8] of the same molecule?
A: The kon was 430000 M⁻¹ s⁻¹.
